Results: patent US20080242590A1, “New Method 706” (ASTRAZENECA AB, priority 2007, published 2008)

B1: Recombinant human Neprilysin: commercially available Recombinant Human Neprilysin (R&D Systems), positive control (protein)
chain: YDDGICKSSDCIKSAARLIQNMDATTEPCTDFFKYACGGWLKRNVIPETSSRYGNFDILRDELEVVLKDVLQEPKTEDIVAVQKAKALYRSCINESAIDSRGGEPLLKLLPDIYGWPVATENWEQKYGASWTAEKAIAQLNSKYGKKVLINLFVGTDDKNSVNHVIHIDQPRLGLPSRDYYECTGIYKEACTAYVDFMISVARLIRQEERLPIDENQLALEMNKVMELEKEIANATAKPEDRNDPMLLYNKMTLAQIQNNFSLEINGKPFSWLNFTNEIMSTVNISITNEEDVVVYAPEYLTKLKPILTKYSARDLQNLMSWRFIMDLVSSLSRTYKESRNAFRKALYGTTSETATWRRCANYVNGNMENAVGRLYVEAAFAGESKHVVEDLIAQIREVFIQTLDDLTWMDAETKKRAEEKALAIKERIGYPDDIVSNDNKLNNEYLELNYKEDEYFENIIQNLKFSQSKQLKKLREKVDKDEWISGAAVVNAFYSSGRNQIVFPAGILQPPFFSAQQSNSLNYGGIGMVIGHEITHGFDDNGRNFNKDGDLVDWWTQQSASNFKEQSQCMVYQYGNFSWDLAGGQHLNGINTLGENIADNGGLGQAYRAYQNYIKKNGEEKLLPGLDLNHKQLFFLNFAQVWCGTYRPEYAVNSIKTDVHSPGNFRIIGTLQNSAEFSEAFHCRKNSYMNPEKKCRVW
B2: Nep: in-house produced Neprilysin (extra-cellular domain only), without Fc (protein, UniProt P08473 52-750, looked up)
extracellular domain: B1 chain
modifications: extracellular domain
notes: in-house produced Neprilysin (extra-cellular domain only), without Fc

How the values were obtained:
[1] = test system: amyloid β peptide 1-40 (Aβ40); test: Ex-vivo degradation of Aβ40 in guinea pig plasma; type: biochemical; conditions: 5 μg/ml, 4 hours, 37° C.
Procedure: Degradation of amyloid β peptide 1-40 (Aβ40) and amyloid β peptide 1-42 (Aβ42) by neprilysin was investigated using heparinized plasma from male Dunkin Hartley guinea pigs, weighing 250-300 g (HBLidkoping ka). Blood was withdrawn from anaesthetized guinea pigs by heart puncture. The blood were collected into prechilled heparin-plasma tubes and centrifuged for 10 min at 4° C. at 3000×g within 20 minutes of sampling. Plasma samples were transferred to pre-chilled polypropylene tubes and immediately frozen on dry ice and stored at −70° C. prior to use. The experiments were performed on a pool of plasma from seven guinea pigs. His-Fc-Nep (6 μg/ml or 208 μg/ml) or 5 μg/ml recombinant human Neprilysin (R&D systems) with corresponding vehicles (50 mM Tris-HCl, 150 mM NaCl pH 7.5 or 25 mM Tris-HCl, 0.1 M NaCl pH 8.0) were incubated with a pool of plasma in presence or absence of 10 μM phosphoramidon (BIOMOL) at 37° C. for 0 and 4 h. A final concentration of 4.7 mM EDTA was added into the tubes before the amount of Aβ40 and Aβ42 was analysed using a commercial ELISA kit obtained from Biosource (Aβ1-40) or Innogenetics (Aβ1-42).

[2] = Pharmacokinetics of Fc-Nep and commercial neprilysin, single i.v. dose (Example 20); type: in vivo; conditions: mice, single i.v. dose 1 mg/kg
Procedure: The Fc-Nep fusion protein was developed to improve the pharmacokinetic entities of neprilysin with the specific aims to reduce clearance and improve half-life. To test this we have administrated a single i.v. dose of either 1 mg/kg commercial neprilysin or 1 alternatively 5 mg/kg in-house produced Fc-Nep to mice. At set times after dosing blood samples were drawn from the tail vein or by heart puncture at termination. Upon sampling into tubes containing EDTA the aliquots were put on ice. Plasma was prepared by centrifugation within 15 minutes of sampling (typically 1500 g at 4° C. for 10 min) and immediately frozen. Plasma concentrations of Fc-Nep and neprilysin were determined via immunoassays using either anti-Nep for commercial neprilysin or anti-human IgG for Fc-Nep as capture antibodies while both substances were detected via an anti-Nep antibody. Pharmacokinetic parameters are calculated using a software package (WinNonlin, Pharsight Corporation, USA) and in this example experiment the calculated half-life had increased from about 5 minutes for Nep to about 20 hours for Fc-Nep.

amyloid β 1-40 peptide = test: Degradation of amyloid β 1-40 peptide by Fc-Neprilysin and Neprilysin in buffer; type: biochemical; conditions: enzyme 2.4 μg/ml, Aβ 1-40 300 nM, 2.5 hours at 37° C., buffer
Procedure: The assay is measuring the remaining amyloid β 1-40 peptide (Bachem) concentration following its incubation in the presence of Neprilysin (R&D Systems) or Fc-Neprilysin with or without Neprilysin inhibitor. 100 μl of reaction mixture containing amyloid β 1-40 peptide (final concentrations, 300, 30 or 3 nM) and/or Neprilysin (2.4 μg/ml), and/or Fc-Neprilysin construct (2.4 μg/ml), and/or Phosphoramidone (10 μM) was incubated in a round bottom 96-well polypropylene plate at 37° C. for 2.5 hours. Following incubation, 10 μl of reaction mixture was transferred into Thermo-Fast© 96-well PCR plate (Abgene, UK) containing 10 μl of Standard Diluent (Gyros AB). Amyloid β 1-40 concentration was determined using Gyrolab Workstation LIF system. Biotinylated anti-amyloid β antibodies (6E10; final concentration 50 μg/ml; Signet) were used as capturing antibodies and polyclonal anti-human amyloid β antibodies (44-348; Biosource) labeled with Alexa Fluor 647 dye (Molecular probes) were used as detection antibodies. Amyloid β 1-40 peptide concentration measurement performed according to the manufacturers protocol using Gyrolab Bioaffy™ Software Package Version 1.8 (Gyros AB). Amyloid β 1-40 peptide degradation by Neprilysin was calculated as a percentage of Amyloid β 1-40 peptide left after incubation in the presence of Neprilysin compared to the amyloid β 1-40 peptide concentration in the absence of Neprilysin.

[3] = test system: amyloid β peptide 1-40 (Aβ40); test: Degradation of Aβ40 in human plasma (Example 18); type: biochemical; conditions: 5 μg/ml, 4 hours, 37° C.
Procedure: Blood from eight individuals (5 females and 3 males) were collected into pre-chilled heparin-plasma tubes at the healthcare centre (AstraZeneca) at two different time points. Plasma was prepared by centrifugation for 20 min at 4° C. at 2500×g within 30 minutes of sampling. Plasma samples were transferred to pre-chilled polypropylene tubes and immediately frozen and stored at −70° C. prior to use. His-Fc-Nep (6 μg/ml) or 5 μg/ml recombinant human Neprilysin (R&D systems) with corresponding vehicles (50 mM Tris-HCl, 150 mM NaCl pH 7.5 or 25 mM Tris-HCl, 0.1 M NaCl pH 8.0) in presence or absence of 10 μM phosphoramidon was incubated with a pool of plasma at 37° C. for 0 and 4 h. A final concentration of 4.7 mM EDTA was added into the tubes before the amount of Aβ40 was analysed using a commercial ELISA kit obtained from Biosource. His-Fc-Nep (6 μg/ml) and commercial human recombinant neprilysin (5 μg/ml) degraded Aβ40 with 33% and 70%, respectively, compared to vehicle after 4 hours incubation at 37° C. The Aβ40 levels were unaffected after addition of 10 μM phosphoramidon (FIG. 4).

[4] = Pharmacokinetics of Fc-Nep and in-house produced Neprilysin, single i.v. dose (Example 27); type: in vivo; conditions: mice, single i.v. dose 10 or 50 nmol enzyme/kg
Procedure: The Fc-Nep fusion protein was developed to improve the pharmacokinetic entities of neprilysin with the specific aims to reduce clearance and improve half-life. To test this we have administrated a single i.v. dose of 10 or 50 nmol enzyme/kg body weight neprilysin (Nep) or Fc-Nep (1 and 5 mg/kg) to mice. At set times the dose blood samples were drawn from the tail vein or by heart puncture at termination. Upon sampling into tubes containing EDTA the aliquots were put on ice. Plasma was prepared by centrifugation within 15 minutes of sampling (typically 1500 g at 4° C. for 10 min) and immediately frozen. Plasma concentrations of Nep and Fc-Nep were determined via immunoassays using either anti-Nep for Nep or anti-human IgG for Fc-Nep as capture antibodies while both substances were detected via an anti-Nep antibody. Pharmacokinetic parameters are calculated using a software package (WinNonlin, Pharsight Corporation, USA) and in this example experiment the calculated half-life had increased from about 1 day for Nep to about 2.5 weeks for Fc-Nep.

Molecule	Aβ40 degraded compared to vehicle [1] [%]	calculated half-life [2]	Amyloid β 1-40 peptide degraded (amyloid β 1-40 peptide) [%]	Aβ40 degraded compared to vehicle [3] [%]	calculated half-life [4]
B1	49	about 5 minutes	64	70	–
B2	–	–	–	–	about 1 day
